Test results from patent US20190040153A1 (Novartis, published 2019).
Where a chain is given by its changes, count along the chain named.

T1: human β-klotho (soluble, recombinant) (human, UniProt Q86Z14 53-997, limits assumed)
T1 construct: also called recombinant human β-klotho; beta-klotho
T1 sequence: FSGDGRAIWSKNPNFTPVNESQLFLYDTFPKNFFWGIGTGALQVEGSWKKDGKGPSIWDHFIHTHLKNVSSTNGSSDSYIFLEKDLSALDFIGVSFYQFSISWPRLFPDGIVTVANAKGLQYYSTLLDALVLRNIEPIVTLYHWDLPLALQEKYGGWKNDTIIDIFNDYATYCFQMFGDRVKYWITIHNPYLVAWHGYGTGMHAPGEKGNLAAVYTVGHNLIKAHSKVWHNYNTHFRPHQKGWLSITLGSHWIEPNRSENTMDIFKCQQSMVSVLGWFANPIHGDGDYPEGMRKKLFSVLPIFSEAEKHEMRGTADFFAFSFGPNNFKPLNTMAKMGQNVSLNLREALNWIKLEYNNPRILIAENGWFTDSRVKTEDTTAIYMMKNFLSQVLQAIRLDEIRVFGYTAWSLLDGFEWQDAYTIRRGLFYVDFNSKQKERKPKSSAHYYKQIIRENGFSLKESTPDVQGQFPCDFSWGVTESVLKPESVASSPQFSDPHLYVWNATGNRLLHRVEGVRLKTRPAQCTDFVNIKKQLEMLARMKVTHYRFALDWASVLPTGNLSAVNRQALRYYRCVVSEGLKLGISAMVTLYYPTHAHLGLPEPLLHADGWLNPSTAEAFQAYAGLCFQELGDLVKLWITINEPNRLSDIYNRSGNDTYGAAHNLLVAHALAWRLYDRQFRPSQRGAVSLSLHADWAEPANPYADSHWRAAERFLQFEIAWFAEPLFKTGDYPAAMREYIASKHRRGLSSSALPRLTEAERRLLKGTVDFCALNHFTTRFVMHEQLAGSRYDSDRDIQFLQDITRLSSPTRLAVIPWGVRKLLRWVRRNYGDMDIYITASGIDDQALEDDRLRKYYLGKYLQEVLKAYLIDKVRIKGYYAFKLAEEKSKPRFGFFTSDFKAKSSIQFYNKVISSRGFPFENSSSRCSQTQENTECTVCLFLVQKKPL

B1: NOV004 (antibody, human IgG1, kappa, V domains shown)
VH: EVQLVESGGGLVKPGGSLRLSCAVSGYSITSGYTWHWVRQAPGKGLEWLSYIHYSVYTNYNPSVKGRFTISRDTAKNSFYLQMNSLRAEDTAVYYCARRTTSLERYFDVWGQGTLVTVSS
VL: DIQMTQSPSSLSASVGDRVTITCQASQDISNYLNWYQQKPGKAPKLLIYYTSRLQSGVPSRFTGSGSGADYTFTISSLQPEDIATYFCQQGNTLPYTFGQGTKLEIKR
notes: Humanized mAb derived from mouse hybridoma 127F19
B2: NOV005 (antibody, human IgG1, kappa, V domains shown)
VH: QVQLQESGPGLVKPSQTLSLTCTVSGYSITSGYTWHWIRQHPGKGLEWIGYIHYSVYTNYNPSLKSRVTISRDTSKNQFSLKLSSVTAADTAVYYCARRTTSLERYFDVWGQGTLVTVSS
VL: B1 VL with T63S
notes: as for B1
B3: NOV006 (antibody, human IgG1, kappa, V domains shown)
VH: B2 VH
VL: EIVMTQSPATLSLSPGERATLSCRASQDISNYLNWYQQKPGQAPRLLIYYTSRLQSGIPARFSGSGSGADYTLTISSLQPEDFAVYFCQQGNTLPYTFGQGTKLEIKR
notes: as for B1

Experiments:
[1] = target: human FGFR1c_β-klotho receptor complex (on HEK293 cells) (human, UniProt P11362 22-822); assay: cell-based or functional assay
Chain of human FGFR1c_β-klotho receptor complex (on HEK293 cells) (chain, as listed by the source, chain 1 of 2): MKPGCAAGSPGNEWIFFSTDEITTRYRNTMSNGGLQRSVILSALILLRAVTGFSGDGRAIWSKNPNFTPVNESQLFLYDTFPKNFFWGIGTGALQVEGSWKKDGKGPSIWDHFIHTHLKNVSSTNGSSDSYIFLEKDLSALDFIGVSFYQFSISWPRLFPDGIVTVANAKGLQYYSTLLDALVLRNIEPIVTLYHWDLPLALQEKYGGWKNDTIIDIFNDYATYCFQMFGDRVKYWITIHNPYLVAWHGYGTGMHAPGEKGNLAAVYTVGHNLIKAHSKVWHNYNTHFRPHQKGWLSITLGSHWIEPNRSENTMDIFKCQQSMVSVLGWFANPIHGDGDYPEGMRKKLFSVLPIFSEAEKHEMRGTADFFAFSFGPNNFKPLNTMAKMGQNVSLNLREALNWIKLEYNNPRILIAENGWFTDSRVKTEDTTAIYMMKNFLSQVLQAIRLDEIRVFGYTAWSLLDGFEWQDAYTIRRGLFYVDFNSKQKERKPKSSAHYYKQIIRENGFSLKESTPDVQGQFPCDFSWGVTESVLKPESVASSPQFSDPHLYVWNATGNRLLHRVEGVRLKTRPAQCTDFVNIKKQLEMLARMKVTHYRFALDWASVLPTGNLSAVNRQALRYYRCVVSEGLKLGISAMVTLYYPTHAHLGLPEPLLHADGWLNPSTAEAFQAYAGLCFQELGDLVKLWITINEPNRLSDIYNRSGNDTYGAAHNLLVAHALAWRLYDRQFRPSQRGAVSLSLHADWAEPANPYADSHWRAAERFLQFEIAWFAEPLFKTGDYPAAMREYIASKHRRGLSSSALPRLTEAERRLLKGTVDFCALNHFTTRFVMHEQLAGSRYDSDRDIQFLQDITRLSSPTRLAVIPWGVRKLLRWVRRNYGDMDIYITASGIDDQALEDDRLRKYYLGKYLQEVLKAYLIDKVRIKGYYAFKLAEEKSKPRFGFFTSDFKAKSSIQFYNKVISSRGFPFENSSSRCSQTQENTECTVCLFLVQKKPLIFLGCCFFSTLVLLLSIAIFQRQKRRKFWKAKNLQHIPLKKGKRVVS
Chain of human FGFR1c_β-klotho receptor complex (on HEK293 cells) (P11362 22-822, chain 2 of 2): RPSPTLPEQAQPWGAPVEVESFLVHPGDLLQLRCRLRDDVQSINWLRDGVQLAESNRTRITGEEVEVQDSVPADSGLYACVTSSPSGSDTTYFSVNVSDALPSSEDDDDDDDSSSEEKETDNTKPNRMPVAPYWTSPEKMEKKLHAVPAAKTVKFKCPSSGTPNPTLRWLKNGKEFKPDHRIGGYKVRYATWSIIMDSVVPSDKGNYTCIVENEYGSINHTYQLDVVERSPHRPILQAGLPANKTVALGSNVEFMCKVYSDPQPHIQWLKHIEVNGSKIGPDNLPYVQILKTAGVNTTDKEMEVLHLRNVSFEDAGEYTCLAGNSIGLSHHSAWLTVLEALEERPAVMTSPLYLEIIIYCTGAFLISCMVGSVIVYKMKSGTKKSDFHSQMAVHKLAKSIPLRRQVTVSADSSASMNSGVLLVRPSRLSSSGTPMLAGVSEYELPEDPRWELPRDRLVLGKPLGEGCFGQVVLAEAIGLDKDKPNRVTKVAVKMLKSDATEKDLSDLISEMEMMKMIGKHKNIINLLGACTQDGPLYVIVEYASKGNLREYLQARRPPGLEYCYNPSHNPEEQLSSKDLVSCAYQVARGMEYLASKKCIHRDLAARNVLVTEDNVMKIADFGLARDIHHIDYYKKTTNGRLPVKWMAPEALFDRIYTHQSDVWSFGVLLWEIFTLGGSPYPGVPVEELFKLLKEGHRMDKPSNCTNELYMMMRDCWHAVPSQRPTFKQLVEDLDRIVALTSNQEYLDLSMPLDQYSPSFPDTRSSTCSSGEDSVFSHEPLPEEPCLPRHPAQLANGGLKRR

[2] = target: cynomolgus monkey FGFR1c_β-klotho receptor complex (on HEK293 cells) (cynomolgus monkey; human, UniProt A0A2K5WB58 1-1044; P11362 22-822); assay: cell-based or functional assay
Chain of cynomolgus monkey FGFR1c_β-klotho receptor complex (on HEK293 cells) (chain, as listed by the source, chain 1 of 2): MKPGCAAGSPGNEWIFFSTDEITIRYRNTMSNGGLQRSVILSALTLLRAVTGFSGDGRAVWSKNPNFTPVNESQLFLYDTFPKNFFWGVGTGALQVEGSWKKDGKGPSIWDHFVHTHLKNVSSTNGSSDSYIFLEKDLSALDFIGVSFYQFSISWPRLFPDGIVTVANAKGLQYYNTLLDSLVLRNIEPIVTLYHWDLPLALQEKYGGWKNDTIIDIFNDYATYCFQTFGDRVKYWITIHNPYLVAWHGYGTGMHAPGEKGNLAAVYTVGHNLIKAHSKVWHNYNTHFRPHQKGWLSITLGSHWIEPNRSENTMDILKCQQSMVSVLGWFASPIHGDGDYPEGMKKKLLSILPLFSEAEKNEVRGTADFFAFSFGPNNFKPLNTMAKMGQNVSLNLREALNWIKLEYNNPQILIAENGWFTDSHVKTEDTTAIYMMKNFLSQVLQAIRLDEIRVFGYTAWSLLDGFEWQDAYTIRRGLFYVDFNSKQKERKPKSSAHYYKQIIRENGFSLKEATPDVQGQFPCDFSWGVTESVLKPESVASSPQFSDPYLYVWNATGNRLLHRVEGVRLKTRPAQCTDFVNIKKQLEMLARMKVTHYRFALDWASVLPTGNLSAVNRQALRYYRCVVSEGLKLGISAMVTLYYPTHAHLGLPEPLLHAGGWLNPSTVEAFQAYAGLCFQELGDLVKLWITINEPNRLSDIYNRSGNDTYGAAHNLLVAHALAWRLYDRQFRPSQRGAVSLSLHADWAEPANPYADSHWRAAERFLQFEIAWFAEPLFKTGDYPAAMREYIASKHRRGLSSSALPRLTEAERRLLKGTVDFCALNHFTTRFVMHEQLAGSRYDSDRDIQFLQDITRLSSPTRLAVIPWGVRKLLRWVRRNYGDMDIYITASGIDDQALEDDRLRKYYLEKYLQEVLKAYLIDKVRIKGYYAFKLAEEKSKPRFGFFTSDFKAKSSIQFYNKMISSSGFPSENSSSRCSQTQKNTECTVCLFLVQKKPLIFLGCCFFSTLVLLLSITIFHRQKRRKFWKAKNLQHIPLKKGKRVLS
Chain of cynomolgus monkey FGFR1c_β-klotho receptor complex (on HEK293 cells) (P11362 22-822, chain 2 of 2): as the sequence (P11362 22-822, chain 2 of 2) above

[3] = target: T1, human β-klotho (soluble, recombinant); assay: Biacore kinetics; IgG captured by anti-human Fc, human β-klotho as analyte
Description: Binding affinities of antibodies were determined using Biacore kinetic analysis. A Series S Sensor Chip CMS (GE Healthcare, Cat. No. BR-1005-30) was equilibrated to ambient temperature for approximately 30 minutes The system was primed with 1×HBS-EP+ buffer (10×soln, GE Healthcare, Cat. No. BR-1006-69) and the chip was loaded into the Biacore instrument. The chip was normalized using BIAnormalizing (GE Healthcare, Cat. No. BR-1006-51) solution and the chip was conditioned with 50 mM NaOH using a flow rate of 60 μL/minute for all flow paths. The 30 second injection was repeated three times with a wait time of 60 seconds. 10 mM sodium acetate pH 5.0 was injected at 60 μL/minute for 120 seconds and repeated twice. After a new cycle was started for immobilizing the anti-human IgG Fc using the Human Antibody Capture Kit (GE Healthcare, Cat. No. BR-1008-39). The anti-human Fc Ab was diluted to 50 μg/mL in immobilization buffer (10 mM sodium acetate pH 5.0). The amine coupling reagents were mixed 1:1 (EDC and NHS) and injected for 7 minutes at 10 μL/minute. Then anti-human Fc Ab was injected for 6 minutes at 10 μL/minute. Lastly ethanolamine was injected for 7 minutes at 10 μL/minute with a wait time of 60 seconds. This should result in immobilization of approximately 8000-10000 RU. Then we performed test injections for an Rmax of 10 RUs (capture levels=˜28 RUs) for NOV004, NOV005 and NOV006. This was done using a flow rate of […] and a 3 M MgCl₂ regeneration buffer. Each flow cell was evaluated each time due to changes in chip surface, affinity of IgGs, IgG protein quality and differences in dilutions. We started with an IgG concentration of 0.5 ug/mL and increased (or decreased) the concentration depending on the results from the sample injections. […] After capturing parameters were determined for each antibody in each flow cell, human β-klotho at various concentrations was passed over the chip and kₐ (1/Ms), kd (1/s), KD (M), and Rmax (RU) were calculated by Biacore kinetics.
In vitro work was done to show the binding and cell activity properties of NOV004, NOV005, and NOV006. […]

Binder	pERK activation EC50 [1] [nM]	pERK activation EC50 [2] [nM]	Kd [3] [nM]
B1	~3	~20	~0.3
B2	~3	~16	~0.3
B3	~4	~18	~0.4
